Test results from patent US20110263454A1, “Methods of Identifying Functional Characteristics of Promoters, Transcription Modifying Proteins and Transcription Modulating Agents” (Salk Institute for Biological Studies, priority 2008, published 2011).

Key:
[1] = system: mDio2 promoter; test: NHR-promoter luciferase screen, mDio2 promoter; type: cell-based, mouse; settings: for Luc. act., normalized to lacZ / Normalized Luc. act., normalized to control: Dio2, HR component without or with its ligand; for mDio2 promoter reporter activity: transcription factor +/- ligand, control = 1.00
Procedure, shortened: (§1)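 CV-1 cells were co-transfected with 50 ng NHR (homodimer or NHR/RXR heterodimer), 100 ng promoter-luciferase construct and 50 ng LacZ. Luciferase was normalized to LacZ and to a no-NHR/no-ligand control.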

[2] = system: SREBP1c promoter; test: NHR-promoter luciferase screen, SREBP1c promoter; type: cell-based, mouse; settings: for Luc. act., normalized to lacZ / Normalized Luc. act., normalized to control: SREBP1c promoter, HR component without or with ligand; for mSREBP1-c promoter reporter activity: transcription factor +/- ligand, control = 1.00
Procedure, shortened: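 Values are luciferase activity normalised to LacZ (transfection control) and to a control lacking NHR or ligand. Read-out at 48 h in CV-1 cells carrying 100 ng promoter-reporter, 50 ng receptor (alone or with RXR) and 50 ng LacZ.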

[3] = system: hIFNg promoter; test: NHR-promoter luciferase screen, hIFNg promoter; type: cell-based, human; settings: for Luc. act., normalized to lacZ / Normalized Luc. act., normalized to control: IFNg promoter, HR component without or with ligand; for hIFNg promoter reporter activity: transcription factor +/- ligand, control = 1.00
Procedure, shortened: as §1

[4] = system: mADRP promoter; test: NHR-promoter luciferase screen, mADRP promoter; type: cell-based, mouse; settings: for mADRP promoter reporter activity: transcription factor +/- ligand, control = 1.00
Procedure, shortened: as §1

[5] = system: hIRF7 promoter; test: NHR-promoter luciferase screen, hIRF7 promoter; type: cell-based, human; settings: for Normalized Luc. act., normalized to control / Luc. act., normalized to lacZ: IRF7 promoter reporter; for Normalized Luc. act., normalized to control: HR without or with its ligand, relative to control; for Luc. act., normalized to lacZ: hormone receptor (HR) without or with its ligand; for hIRF7 promoter reporter activity: transcription factor +/- ligand, control = 1.00
Procedure, shortened: as §1

[6] = system: hPPARg2 promoter; test: NHR-promoter luciferase screen, hPPARg2 promoter; type: cell-based, human; settings: for Luc. act., normalized to lacZ / Normalized Luc. act., normalized to control: PPARG2 promoter, hormone receptor with or without its ligand; for Normalized Luc. act., normalized to control: relative to control; for Results of assays of transcription factor (+/- ligand) with hPPARg2: Table 6d, luciferase activity relative to control (control = 1.00)
Procedure, shortened: as §1

[7] = ADRP promoter, HR/ligand component

Row | Molecule | Luc. act., normalized to lacZ [1] | Normalized Luc. act., normalized to control [1] | mDio2 promoter reporter activity [1] | Luc. act., normalized to lacZ [2] | Normalized Luc. act., normalized to control [2] | mSREBP1-c promoter reporter activity [2] | Luc. act., normalized to lacZ [3] | Normalized Luc. act., normalized to control [3] | hIFNg promoter reporter activity [3] | Luc. act., normalized to lacZ [4, 7] | Normalized Luc. act., normalized to control [4, 7] | mADRP promoter reporter activity [4] | Normalized Luc. act., normalized to control [5] | Luc. act., normalized to lacZ [5] | hIRF7 promoter reporter activity [5] | Luc. act., normalized to lacZ [6] | Normalized Luc. act., normalized to control [6] | Results of assays of transcription factor (+/- ligand) with hPPARg2 [6]
1 | CTF1: COUP-TF1 (NR2F1), cDNA driver (protein, UniProt P10589 1-423, looked up) COUP transcription factor 1: MAMVVSSWRDPQDDVAGGNPGGPNPAAQAARGGGGGAGEQQQQAGSGAPHTPQTPGQPGAPATPGTAGDKGQGPPGSGQSQQHIECVVCGDKSSGKHYGQFTCEGCKSFFKRSVRRNLTYTCRANRNCPIDQHHRNQCQYCRLKKCLKVGMRREAVQRGRMPPTQPNPGQYALTNGDPLNGHCYLSGYISLLLRAEPYPTSRYGSQCMQPNNIMGIENICELAARLLFSAVEWARNIPFFPDLQITDQVSLLRLTWSELFVLNAAQCSMPLHVAPLLAAAGLHASPMSADRVVAFMDHIRIFQEQVEKLKALHVDSAEYSCLKAIVLFTSDACGLSDAAHIESLQEKSQCALEEYVRSQYPNQPSRFGKLLLRLPSLRTVSSSVIEQLFFVRLVGKTPIETLIRDMLLSGSSFNWPYMSIQCS | 15.7 | 1.0 | 1.00 | 205.9 | 0.6 | 0.64 | 31.8 | 2.0 | 2.00 | 393.3 | 0.8 | 0.79 | 0.9 | 24.8 | 0.94 | 1.4 | 0.7 | 0.71
2 | ERR3: Estrogen Related Receptor γ (NR3B3, ERRg), cDNA driver (protein, UniProt P62508 1-458, looked up) Estrogen-related receptor …: MDSVELCLPESFSLHYEEELLCRMSNKDRHIDSSCSSFIKTEPSSPASLTDSVNHHSPGGSSDASGSYSSTMNGHQNGLDSPPLYPSAPILGGSGPVRKLYDDCSSTIVEDPQTKCEYMLNSMPKRLCLVCGDIASGYHYGVASCEACKAFFKRTIQGNIEYSCPATNECEITKRRRKSCQACRFMKCLKVGMLKEGVRLDRVRGGRQKYKRRIDAENSPYLNPQLVQPAKKPYNKIVSHLLVAEPEKIYAMPDPTVPDSDIKALTTLCDLADRELVVIIGWAKHIPGFSTLSLADQMSLLQSAWMEILILGVVYRSLSFEDELVYADDYIMDEDQSKLAGLLDLNNAILQLVKKYKSMKLEKEEFVTLKAIALANSDSMHIEDVEAVQKLQDVLHEALQDYEAGQHMEDPRRAGKMLMTLPLLRQTSTKAVQHFYNIKLEGKVPMHKLFLEMLEAKV | 85.6 | 5.4 | 5.45 | 406.7 | 1.3 | 1.26 | 27.9 | 1.8 | 1.75 | – | – | 3.37 | 2.1 | 55.2 | 2.10 | 2.1 | 1.0 | 1.04
